From article PMC10127692, “SARS-CoV-2 SUD2 and Nsp5 Conspire to Boost Apoptosis of Respiratory Epithelial Cells via an Augmented Interaction with the G-Quadruplex of BclII”

Legend:
[1] = target: T1, SUD2core (SUD2-N+M of Nsp3) (SARS-CoV-2, UniProt P0DTC1 1230-1493); test: pull-down; 100 mM K+; positive control; settings: protein: recombinant; tags: His; label: 5'-biotin; G4
[2] = target: SUD2core (SUD2-N+M of Nsp3);Nsp5 (SARS-CoV-2;SARS-CoV-2, UniProt P0DTC1;P0DTC1 1230-1493;3264-3569, |); test: pull-down; 100 mM K+; Nsp5 added; settings: protein: recombinant;recombinant; tags: His;GST; label: 5'-biotin (BLI, pulldown); Cy5 (EMSA); G4, folded in 100 mM K+
[3] = target: T1, SUD2core (SUD2-N+M of Nsp3); test: BLI; 100 mM K+; settings: protein: recombinant; tags: His; label: 5'-biotin (BLI, pulldown); Cy5 (EMSA); G4, folded in 100 mM K+

Binder: TTGAGGGTGGGTAGGGTGGGTAA (structured_DNA) [MYCG4]
- binding result [1]: binds

Binder: GGGCGCGGGAGGAATTGGGCGGG (structured_DNA) [Bcl2G4WT (G4 folded)]
- binding signal [2]: 6.3 fold SUD2core retained vs without Nsp5
- Kd [3]: 85 nM
